Measured values published in the supplement of paper PMC6757056.
± gives the standard deviation of the averaged measurements.

B1: library; a variant is named by its letters at N, in order (parent)
chain: GCUGUCACCGGUGUAUUACCCUAGUGGUCGACCGGUCUGAUGAGUCUNNNNNNAGACGAAACAGC

Tests used:
[1] = variants of: B1; test: normalized RNA/DNA level with ligand (relative to sTRSVctl = 100) (log10 (% of sTRSVctl)); ligand: hypoxanthine (xanthine aptamer); higher = less ribozyme self-cleavage, higher mRNA level; settings: ligand concentration (+) RNA-Seq: 5 mM, HEK293T, reporter: mCherry (pCS4076), ligand present: yes
Outline: (§1)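 Ribozyme switch library plasmids with mCherry reporters (eGFP in certain ligand experiments) went into HEK293T cells at 4 µg per 6-well well. Where ligand was used, it was applied 1 h before transfection, and total RNA was extracted with EDTA 72 h later for reverse transcription, amplification, barcoding and sequencing. RNA level is the RNA-to-DNA read ratio normalized to a spiked-in non-cleaving sequence or to the leading sequences, then scaled and log-transformed. Scaling was ×100 with log10, the leading set comprised 25 sequences, and the cutoff was ≥100 DNA reads.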

[2] = variants of: B1; test: normalized RNA/DNA level without ligand (relative to sTRSVctl = 100) (log10 (% of sTRSVctl)); ligand: hypoxanthine (xanthine aptamer); higher = less ribozyme self-cleavage, higher mRNA level; settings: HEK293T, reporter: mCherry (pCS4076), ligand present: no
Outline: as §1

Row | Variant | normalized RNA/DNA level with ligand (log10) [1] | normalized RNA/DNA level without ligand (log10) [2]
1 | CGGGCA | 1.98 ± 0.049 | 1.8985 ± 0.0018
2 | CGGGCC | 1.944 ± 0.0098 | 1.99 ± 0.026
3 | GGGGAU | 1.895 ± 0.015 | 1.749 ± 0.0068
4 | GGGGAC | 1.91 ± 0.068 | 1.613 ± 0.0032
5 | UGGGAC | 1.897 ± 0.018 | 1.83 ± 0.044
6 | UGGGAU | 1.938 ± 0.014 | 1.71 ± 0.02
7 | UGGGAA | 1.86 ± 0.054 | 1.64 ± 0.036
8 | UGGGAG | 1.9 ± 0.054 | 1.55 ± 0.044
9 | GGGCCC | 1.95 ± 0.02 | 1.98 ± 0.029
10 | GGGCCU | 2.06 ± 0.045 | 2.014 ± 0.0022
11 | AGCUAA | 1.912 ± 0.0024 | 1.845 ± 0.013
12 | AGCUAU | 1.96 ± 0.012 | 1.825 ± 0.0081
13 | AGCUAG | 1.83 ± 0.066 | 1.508 ± 0.0088
14 | AGGGCC | 1.98 ± 0.024 | 1.98 ± 0.04
15 | AGGGCU | 1.99 ± 0.027 | 1.874 ± 0.018
16 | UGGUAA | 1.902 ± 0.013 | 1.712 ± 0.011
17 | UGGUAU | 1.907 ± 0.0077 | 1.707 ± 0.017
18 | UGGUAG | 1.88 ± 0.028 | 1.55 ± 0.011
19 | UGGUAC | 1.98 ± 0.088 | 1.85 ± 0.041
20 | AGGUUU | 1.95 ± 0.073 | 1.87 ± 0.026
21 | AGGUUA | 1.93 ± 0.035 | 1.68 ± 0.031
22 | AGGUUC | 1.939 ± 0.0087 | 1.83 ± 0.026
23 | CGCUCU | 2.02 ± 0.061 | 1.93 ± 0.048
24 | CGCUCC | 1.956 ± 0.013 | 1.93 ± 0.027
25 | CGCUCA | 2.01 ± 0.059 | 1.905 ± 0.012
26 | UGGUGC | 1.94 ± 0.011 | 1.855 ± 0.0028
27 | UGGUGA | 1.88 ± 0.023 | 1.52 ± 0.088
28 | UGGUGU | 1.95 ± 0.067 | 1.599 ± 0.0035
29 | UGGUGG | 1.93 ± 0.038 | 1.596 ± 0.0083
